Paper PMC9769108, “Tuning dynamic DNA- and peptide-driven self-assembly in DNA–peptide conjugates†” (Chemical Science, 2022)
Where no end group is shown, it is not given here.

Target: the molecule itself
Assay: dynamic light scattering + atomic force microscopy; TAMg buffer, room temperature, aged 0 to 28 days; total peptide 10 μM; CD alongside

B1: ILVAGK, β-turn-forming hexapeptide (parent peptide) (peptide)
peptide: ILVAGK
modifications: not fully specified (N-terminus, C-terminus)
notes: The form used for conjugation is N3-ILVAGK-NH2; also called pure ILVAGK
**Q.** Does B1 bind?
**A.** binds
